Data as given in article PMC5379210 (Scientific Reports, 2017).
Numbering of substitutions follows the chain as printed. Names and notes keep the numbering of the source. One block for each molecule: values may come before it.

How the values were obtained:
[1] = target: S. cerevisiae Gpi8 (23-306aa) C85A (S. cerevisiae) (UniProt P49018); test: SEC-MALS; C85A mutant under reducing conditions
[2] = target: S. cerevisiae Gpi8 (23-306aa) C85A (S. cerevisiae) (UniProt P49018); test: SEC; single purified protein on Superdex 200 10/300 GL, 20 mM Tris-HCl pH 8, 150 mM NaCl, purified without reducing agent (non-reducing) or with 2.5 mM DTT; re-runs of peaks; dimer to monomers
[3] = target: S. cerevisiae Gpi8 (23-337aa) (S. cerevisiae) (UniProt P49018); test: as above
[4] = target: the molecule itself; test: as above

stoichiometry N [1]: 2
stoichiometry N [2]: 2
Molecule: S. cerevisiae Gpi8 (23-306aa) C85A (from UniProt P49018 23-306) (domain or fragment)

stoichiometry N [3]: 2
Molecule: S. cerevisiae Gpi8 (23-337aa) (from UniProt P49018 23-337) (domain or fragment)

B1: S. cerevisiae Gpi8 (23-359aa) (domain or fragment, UniProt P49018 23-359, looked up)
chain: NNTDAAHEVIATNTNNWAVLVSTSRFWFNYRHMANVLSMYRTVKRLGIPDSQIILMLSDDVACNSRNLFPGSVFNNKDHAIDLYGDSVEVDYRGYEVTVENFIRLLTDRWTEDHPKSKRLLTDENSNIFIYMTGHGGDDFLKFQDAEEIASEDIADAFQQMYEKKRYNEIFFMIDTCQANTMYSKFYSPNILAVGSSEMDESSYSHHSDVEIGVAVIDRFTYYCLDFLEQIDKNSTLTLQDLFDSFTFEKIHSHVGVRTDLFDRNPSEVLITDFFANVQNVIPDDSKPLSVSHYHHYKDHIDTAQYELNNNVLDLALETYRKNNQSSKIEKKIKDIK
notes: S. cerevisiae Gpi8, C-terminal truncation of the luminal domain, residues 23-359; also called S. cerevisiae Gpi8 (23-359aa)^BL21
stoichiometry N [4]: 2

B2: S. cerevisiae Gpi8 (23-306aa), caspase-like domain, insect cell expressed (N-glycosylated) (domain or fragment, UniProt P49018 23-306, looked up)
chain: NNTDAAHEVIATNTNNWAVLVSTSRFWFNYRHMANVLSMYRTVKRLGIPDSQIILMLSDDVACNSRNLFPGSVFNNKDHAIDLYGDSVEVDYRGYEVTVENFIRLLTDRWTEDHPKSKRLLTDENSNIFIYMTGHGGDDFLKFQDAEEIASEDIADAFQQMYEKKRYNEIFFMIDTCQANTMYSKFYSPNILAVGSSEMDESSYSHHSDVEIGVAVIDRFTYYCLDFLEQIDKNSTLTLQDLFDSFTFEKIHSHVGVRTDLFDRNPSEVLITDFFANVQNVIPD
modifications: N-glycosylated (two predicted N-glycosylation sites in 23-306)
notes: The construct has an N-terminal gp67 signal peptide for secretion (pFastBac-dual); Runs as a disulfide-linked dimer; also called insect cell expressed Gpi8; not shown: 6xHis, C-terminal, kept
stoichiometry N [4]: 2

B3: S. cerevisiae Gpi8 (23-306aa) C246A (domain or fragment, UniProt P49018 23-306, looked up)
chain: B2 chain with C224A
notes: the methods print Cys244Ala
stoichiometry N [4]: 2

B4: S. cerevisiae Gpi8 (23-306aa), E. coli BL21 expressed (domain or fragment, UniProt P49018 23-306, looked up)
chain: B2 chain
notes: Cloned into NdeI-XhoI sites of pET26a (so in the source); also called E. coli expressed Gpi8
stoichiometry N [4]: 2

B5: S. cerevisiae Gpi8 (23-306aa) C199A (domain or fragment, UniProt P49018 23-306, looked up)
chain: B2 chain with C177A
stoichiometry N [4]: 2

B6: S. cerevisiae Gpi8 (23-306aa), insect cell expressed in the presence of tunicamycin (nonglycosylated) (domain or fragment, UniProt P49018 23-306, looked up)
chain: B2 chain
notes: N-terminal gp67 signal peptide in the construct; also called nonglycosylated Gpi8; insect cell expressed Gpi8 in the presence of tunicamycin
stoichiometry N [4]: 2

B7: S. cerevisiae Gpi8 (23-306aa), E. coli SHuffle expressed (domain or fragment, UniProt P49018 23-306, looked up)
chain: B2 chain
notes: Same construct as m12, other E. coli strain (constitutively expresses DsbC); also called E. coli Shuffle-expressed Gpi8
stoichiometry N [4]: 2

B8: S. cerevisiae Gpi8 (23-379aa) C373A (domain or fragment, UniProt P49018 23-379, looked up)
chain: NNTDAAHEVIATNTNNWAVLVSTSRFWFNYRHMANVLSMYRTVKRLGIPDSQIILMLSDDVACNSRNLFPGSVFNNKDHAIDLYGDSVEVDYRGYEVTVENFIRLLTDRWTEDHPKSKRLLTDENSNIFIYMTGHGGDDFLKFQDAEEIASEDIADAFQQMYEKKRYNEIFFMIDTCQANTMYSKFYSPNILAVGSSEMDESSYSHHSDVEIGVAVIDRFTYYCLDFLEQIDKNSTLTLQDLFDSFTFEKIHSHVGVRTDLFDRNPSEVLITDFFANVQNVIPDDSKPLSVSHYHHYKDHIDTAQYELNNNVLDLALETYRKNNQSSKIEKKIKDIKSTSVLDVDIDSNEAFFTSFK
notes: S. cerevisiae Gpi8, full-length luminal construct, residues 23-379, with C373A; also called C373A mutant
stoichiometry N [4]: 2
